# Measurements from the Human Domainome abundance scans (Beltran et al. 2025).
# ± gives the uncertainty stated by the source.
# B1: Ankyrin-1, residues 1405 to 1484; numbered along this chain, P16157 (parent)
# chain: MKMAVISEHLGLSWAELARELQFSVEDINRIRVENPNSLLEQSVALLNLWVIREGQNANMENLYTALQSIDRGEIVNMLE
# Variants of: B1
# Experiment: abundance fitness (aPCA) (normalised: wild type 0, dead -1); higher = more abundant; growth selection in yeast, the domain comes from the species named
# Conditions: Homo sapiens
row,Variant,abundance fitness
1,MKMAVISEHLGLSMAELARELQFSVEDINRIRVENPNSLLEQSVALLNLWVIREGQNANMENLYTALQSIDRGEIVNMLE,-0.454 ± 0.13
2,MKMAVISEHLGLSEAELARELQFSVEDINRIRVENPNSLLEQSVALLNLWVIREGQNANMENLYTALQSIDRGEIVNMLE,-0.788 ± 0.36
3,MKMAVISEHLGLSRAELARELQFSVEDINRIRVENPNSLLEQSVALLNLWVIREGQNANMENLYTALQSIDRGEIVNMLE,-1.08 ± 0.21
4,MKMAVISEHLGLSSAELARELQFSVEDINRIRVENPNSLLEQSVALLNLWVIREGQNANMENLYTALQSIDRGEIVNMLE,-0.89 ± 0.14
5,MKMAVISEHLGLSVAELARELQFSVEDINRIRVENPNSLLEQSVALLNLWVIREGQNANMENLYTALQSIDRGEIVNMLE,-0.67 ± 0.13
6,MKMAVISEHLGLSAAELARELQFSVEDINRIRVENPNSLLEQSVALLNLWVIREGQNANMENLYTALQSIDRGEIVNMLE,-0.799 ± 0.16
7,MKMAVISEHLGLSCAELARELQFSVEDINRIRVENPNSLLEQSVALLNLWVIREGQNANMENLYTALQSIDRGEIVNMLE,-1.05 ± 0.28
8,MKMAVISEHLGLSDAELARELQFSVEDINRIRVENPNSLLEQSVALLNLWVIREGQNANMENLYTALQSIDRGEIVNMLE,-0.907 ± 0.28
9,MKMAVISEHLGLSGAELARELQFSVEDINRIRVENPNSLLEQSVALLNLWVIREGQNANMENLYTALQSIDRGEIVNMLE,-0.895 ± 0.12
10,MKMAVISEHLGLSLAELARELQFSVEDINRIRVENPNSLLEQSVALLNLWVIREGQNANMENLYTALQSIDRGEIVNMLE,-0.538 ± 0.072
11,MKMAVISEHLGLSPAELARELQFSVEDINRIRVENPNSLLEQSVALLNLWVIREGQNANMENLYTALQSIDRGEIVNMLE,-0.785 ± 0.24
12,MKMAVISEHLGLSNAELARELQFSVEDINRIRVENPNSLLEQSVALLNLWVIREGQNANMENLYTALQSIDRGEIVNMLE,-0.865 ± 0.24
13,MKMAVISEHLGLSTAELARELQFSVEDINRIRVENPNSLLEQSVALLNLWVIREGQNANMENLYTALQSIDRGEIVNMLE,-0.758 ± 0.14
14,MKMAVISEHLGLSKAELARELQFSVEDINRIRVENPNSLLEQSVALLNLWVIREGQNANMENLYTALQSIDRGEIVNMLE,-0.545 ± 0.21
15,MKMAVISEHLGLSHAELARELQFSVEDINRIRVENPNSLLEQSVALLNLWVIREGQNANMENLYTALQSIDRGEIVNMLE,-0.873 ± 0.29
16,MKMAVISEHLGLSWGELARELQFSVEDINRIRVENPNSLLEQSVALLNLWVIREGQNANMENLYTALQSIDRGEIVNMLE,-0.108 ± 0.037
17,MKMAVISEHLGLSWYELARELQFSVEDINRIRVENPNSLLEQSVALLNLWVIREGQNANMENLYTALQSIDRGEIVNMLE,0.128 ± 0.17
18,MKMAVISEHLGLSWWELARELQFSVEDINRIRVENPNSLLEQSVALLNLWVIREGQNANMENLYTALQSIDRGEIVNMLE,-0.288 ± 0.065
19,MKMAVISEHLGLSWEELARELQFSVEDINRIRVENPNSLLEQSVALLNLWVIREGQNANMENLYTALQSIDRGEIVNMLE,0.04 ± 0.076
20,MKMAVISEHLGLSWFELARELQFSVEDINRIRVENPNSLLEQSVALLNLWVIREGQNANMENLYTALQSIDRGEIVNMLE,-0.039 ± 0.058
21,MKMAVISEHLGLSWQELARELQFSVEDINRIRVENPNSLLEQSVALLNLWVIREGQNANMENLYTALQSIDRGEIVNMLE,-0.171 ± 0.13
22,MKMAVISEHLGLSWVELARELQFSVEDINRIRVENPNSLLEQSVALLNLWVIREGQNANMENLYTALQSIDRGEIVNMLE,0.066 ± 0.047
23,MKMAVISEHLGLSWTELARELQFSVEDINRIRVENPNSLLEQSVALLNLWVIREGQNANMENLYTALQSIDRGEIVNMLE,0 ± 0.064

row,Variant,abundance fitness
1,MKMAVISEHLGLSWIELARELQFSVEDINRIRVENPNSLLEQSVALLNLWVIREGQNANMENLYTALQSIDRGEIVNMLE,0.132 ± 0.072
2,MKMAVISEHLGLSWHELARELQFSVEDINRIRVENPNSLLEQSVALLNLWVIREGQNANMENLYTALQSIDRGEIVNMLE,-0.206 ± 0.21
3,MKMAVISEHLGLSWPELARELQFSVEDINRIRVENPNSLLEQSVALLNLWVIREGQNANMENLYTALQSIDRGEIVNMLE,-0.025 ± 0.1
4,MKMAVISEHLGLSWDELARELQFSVEDINRIRVENPNSLLEQSVALLNLWVIREGQNANMENLYTALQSIDRGEIVNMLE,-0.209 ± 0.11
5,MKMAVISEHLGLSWSELARELQFSVEDINRIRVENPNSLLEQSVALLNLWVIREGQNANMENLYTALQSIDRGEIVNMLE,0.037 ± 0.06
6,MKMAVISEHLGLSWCELARELQFSVEDINRIRVENPNSLLEQSVALLNLWVIREGQNANMENLYTALQSIDRGEIVNMLE,-0.238 ± 0.13
7,MKMAVISEHLGLSWKELARELQFSVEDINRIRVENPNSLLEQSVALLNLWVIREGQNANMENLYTALQSIDRGEIVNMLE,-0.251 ± 0.22
8,MKMAVISEHLGLSWLELARELQFSVEDINRIRVENPNSLLEQSVALLNLWVIREGQNANMENLYTALQSIDRGEIVNMLE,0.076 ± 0.049
9,MKMAVISEHLGLIWAELARELQFSVEDINRIRVENPNSLLEQSVALLNLWVIREGQNANMENLYTALQSIDRGEIVNMLE,-0.815 ± 0.3
10,MKMAVISEHLGLAWAELARELQFSVEDINRIRVENPNSLLEQSVALLNLWVIREGQNANMENLYTALQSIDRGEIVNMLE,-0.021 ± 0.11
11,MKMAVISEHLGLVWAELARELQFSVEDINRIRVENPNSLLEQSVALLNLWVIREGQNANMENLYTALQSIDRGEIVNMLE,-0.5 ± 0.049
12,MKMAVISEHLGLLWAELARELQFSVEDINRIRVENPNSLLEQSVALLNLWVIREGQNANMENLYTALQSIDRGEIVNMLE,-0.417 ± 0.12
13,MKMAVISEHLGLYWAELARELQFSVEDINRIRVENPNSLLEQSVALLNLWVIREGQNANMENLYTALQSIDRGEIVNMLE,-0.504 ± 0.15
14,MKMAVISEHLGLCWAELARELQFSVEDINRIRVENPNSLLEQSVALLNLWVIREGQNANMENLYTALQSIDRGEIVNMLE,-0.577 ± 0.12
15,MKMAVISEHLGLMWAELARELQFSVEDINRIRVENPNSLLEQSVALLNLWVIREGQNANMENLYTALQSIDRGEIVNMLE,-0.441 ± 0.2
16,MKMAVISEHLGLDWAELARELQFSVEDINRIRVENPNSLLEQSVALLNLWVIREGQNANMENLYTALQSIDRGEIVNMLE,0.155 ± 0.089
17,MKMAVISEHLGLPWAELARELQFSVEDINRIRVENPNSLLEQSVALLNLWVIREGQNANMENLYTALQSIDRGEIVNMLE,-0.863 ± 0.39
18,MKMAVISEHLGLGWAELARELQFSVEDINRIRVENPNSLLEQSVALLNLWVIREGQNANMENLYTALQSIDRGEIVNMLE,-0.237 ± 0.062
19,MKMAVISEHLGLWWAELARELQFSVEDINRIRVENPNSLLEQSVALLNLWVIREGQNANMENLYTALQSIDRGEIVNMLE,-0.494 ± 0.16
20,MKMAVISEHLGLNWAELARELQFSVEDINRIRVENPNSLLEQSVALLNLWVIREGQNANMENLYTALQSIDRGEIVNMLE,-0.404 ± 0.18
21,MKMAVISEHLGLTWAELARELQFSVEDINRIRVENPNSLLEQSVALLNLWVIREGQNANMENLYTALQSIDRGEIVNMLE,-0.472 ± 0.18
22,MKMAVISEHLGLRWAELARELQFSVEDINRIRVENPNSLLEQSVALLNLWVIREGQNANMENLYTALQSIDRGEIVNMLE,-0.442 ± 0.09
23,MKMAVISEHLGLFWAELARELQFSVEDINRIRVENPNSLLEQSVALLNLWVIREGQNANMENLYTALQSIDRGEIVNMLE,-0.333 ± 0.14

row,Variant,abundance fitness
1,MKMAVISEHLGLSWAFLARELQFSVEDINRIRVENPNSLLEQSVALLNLWVIREGQNANMENLYTALQSIDRGEIVNMLE,-0.23 ± 0.15
2,MKMAVISEHLGLSWAKLARELQFSVEDINRIRVENPNSLLEQSVALLNLWVIREGQNANMENLYTALQSIDRGEIVNMLE,-0.088 ± 0.086
3,MKMAVISEHLGLSWAQLARELQFSVEDINRIRVENPNSLLEQSVALLNLWVIREGQNANMENLYTALQSIDRGEIVNMLE,-0.081 ± 0.11
4,MKMAVISEHLGLSWAALARELQFSVEDINRIRVENPNSLLEQSVALLNLWVIREGQNANMENLYTALQSIDRGEIVNMLE,-0.041 ± 0.059
5,MKMAVISEHLGLSWANLARELQFSVEDINRIRVENPNSLLEQSVALLNLWVIREGQNANMENLYTALQSIDRGEIVNMLE,0.161 ± 0.26
6,MKMAVISEHLGLSWAMLARELQFSVEDINRIRVENPNSLLEQSVALLNLWVIREGQNANMENLYTALQSIDRGEIVNMLE,-0.207 ± 0.1
7,MKMAVISEHLGLSWADLARELQFSVEDINRIRVENPNSLLEQSVALLNLWVIREGQNANMENLYTALQSIDRGEIVNMLE,0.068 ± 0.089
8,MKMAVISEHLGLSWACLARELQFSVEDINRIRVENPNSLLEQSVALLNLWVIREGQNANMENLYTALQSIDRGEIVNMLE,-0.271 ± 0.083
9,MKMAVISEHLGLSWALLARELQFSVEDINRIRVENPNSLLEQSVALLNLWVIREGQNANMENLYTALQSIDRGEIVNMLE,-0.162 ± 0.054
10,MKMAVISEHLGLSWAGLARELQFSVEDINRIRVENPNSLLEQSVALLNLWVIREGQNANMENLYTALQSIDRGEIVNMLE,0.018 ± 0.047
11,MKMAVISEHLGLSWAPLARELQFSVEDINRIRVENPNSLLEQSVALLNLWVIREGQNANMENLYTALQSIDRGEIVNMLE,-0.091 ± 0.064
12,MKMAVISEHLGLSWAILARELQFSVEDINRIRVENPNSLLEQSVALLNLWVIREGQNANMENLYTALQSIDRGEIVNMLE,-0.384 ± 0.13
13,MKMAVISEHLGLSWAHLARELQFSVEDINRIRVENPNSLLEQSVALLNLWVIREGQNANMENLYTALQSIDRGEIVNMLE,-0.104 ± 0.12
14,MKMAVISEHLGQSWAELARELQFSVEDINRIRVENPNSLLEQSVALLNLWVIREGQNANMENLYTALQSIDRGEIVNMLE,-0.233 ± 0.24
15,MKMAVISEHLGNSWAELARELQFSVEDINRIRVENPNSLLEQSVALLNLWVIREGQNANMENLYTALQSIDRGEIVNMLE,0.139 ± 0.2
16,MKMAVISEHLGRSWAELARELQFSVEDINRIRVENPNSLLEQSVALLNLWVIREGQNANMENLYTALQSIDRGEIVNMLE,-0.038 ± 0.09
17,MKMAVISEHLGKSWAELARELQFSVEDINRIRVENPNSLLEQSVALLNLWVIREGQNANMENLYTALQSIDRGEIVNMLE,-0.133 ± 0.2
18,MKMAVISEHLGTSWAELARELQFSVEDINRIRVENPNSLLEQSVALLNLWVIREGQNANMENLYTALQSIDRGEIVNMLE,0.063 ± 0.18
19,MKMAVISEHLGHSWAELARELQFSVEDINRIRVENPNSLLEQSVALLNLWVIREGQNANMENLYTALQSIDRGEIVNMLE,0.274 ± 0.15
20,MKMAVISEHLGWSWAELARELQFSVEDINRIRVENPNSLLEQSVALLNLWVIREGQNANMENLYTALQSIDRGEIVNMLE,-0.431 ± 0.2
21,MKMAVISEHLGSSWAELARELQFSVEDINRIRVENPNSLLEQSVALLNLWVIREGQNANMENLYTALQSIDRGEIVNMLE,0.243 ± 0.092
22,MKMAVISEHLGVSWAELARELQFSVEDINRIRVENPNSLLEQSVALLNLWVIREGQNANMENLYTALQSIDRGEIVNMLE,0.029 ± 0.087
23,MKMAVISEHLGISWAELARELQFSVEDINRIRVENPNSLLEQSVALLNLWVIREGQNANMENLYTALQSIDRGEIVNMLE,0.153 ± 0.32
